From patent US10766960 (dated 2020)
Like-named read-outs stand apart in the source and are kept apart here.

Experiments:
Assay in all cases: SPR
FcgRIIIa F [1] = biological target: T1, FcgRIIIa F (human, UniProt P08637)
FcgRIIIa F [2] = biological target: T1, FcgRIIIa F; remark: listed apart in the source
FcgRIIIa V = FcgRIIIa V (human, UniProt P08637)
Chain of FcgRIIIa V (P08637 17-208 F176V): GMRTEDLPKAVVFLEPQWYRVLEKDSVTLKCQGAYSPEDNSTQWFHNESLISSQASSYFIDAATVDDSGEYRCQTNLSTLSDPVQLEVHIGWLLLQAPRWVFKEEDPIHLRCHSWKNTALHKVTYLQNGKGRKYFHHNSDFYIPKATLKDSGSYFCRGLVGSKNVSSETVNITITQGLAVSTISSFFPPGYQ

T1 sequence (P08637 17-208): as the sequence (P08637 17-208 F176V) above, with V160F counted along it

Binder	Kd (FcgRIIIa F [1]) [nM]	Kd (FcgRIIIa F [2]) [nM]	Kd (FcgRIIIa V) [nM]
H240-BH076/L73-k0 (antibody) chain 1: QDQLVQSGAEVKKPGASVKVSCKASGFNIKDTYIQWVRQAPGQGLEWMGRIDPLRKQTKYREKFEGRVTITADTSTNTAYMELSSLRSEDTAVYYCVRSGREFDYWGQGTLVTVSSASTKGPSVFPLAPSSKSTSGGTAALGCLVKDYFPEPVTVSWNSGALTSGVHTFPAVLQSSGLYSLSSVVTVPSSSLGTQTYICNVNHKPSNTKVDKKVEPKSCDKTHTCPPCPAPELLGGPSVFLFPPKPKDTLMISRTPEVTCVVVDVSHEEPEVKFNWYVDGVEVHNAKTKPREEQYNSTYRVVSVLTVLHQDWLNGKEYKCKVSNDALPMPIEETISKAKGQPREPQVYTLPPSREEMTKNQVSLTCLVKGFYPSDIAVEWESNGQPENNYKTTPPVLDSDGSFFLYSKLTVDKSRWQQGNVFSCSVMHEALHNHYTQESLSLSP chain 2: DIQMTQSPSSLSASVGDRVTITCRASQDIHKYIAWYQQKPGQAPRLLIQYTSTLQPGVPSRFSGSGSGTDYTFTISSLQPEDIATYYCLQYEQLRTFGGGTKVEIKRTVAAPSVFIFPPSDEQLKSGTASVVCLLNNFYPREAKVQWKVDNALQSGNSQESVTEQDSKDSTYSLSSTLTLSKADYEKHKVYACEVTHQGLSSPVTKSFNRGEC	–	26	5.3
H240-AK072/L73-k0 (antibody) chain 1: QDQLVQSGAEVKKPGASVKVSCKASGFNIKDTYIQWVRQAPGQGLEWMGRIDPLRKQTKYREKFEGRVTITADTSTNTAYMELSSLRSEDTAVYYCVRSGREFDYWGQGTLVTVSSASTKGPSVFPLAPSSKSTSGGTAALGCLVKDYFPEPVTVSWNSGALTSGVHTFPAVLQSSGLYSLSSVVTVPSSSLGTQTYICNVNHKPSNTKVDKKVEPKSCDKTHTCPPCPAPEYYWGPSVFLFPPKPKDTLMISRTPEVTCVVVDVSDEEPEVKFNWYVDGVEVHNAKTKPREEQYNATYRVVSVLTVLHQDWLNGKEYKCKVSNKALPAPIEKTISKAKGQPREPQVYTLPPSRKEMTKNQVSLTCLVKGFYPSDIAVEWESNGQPENNYKTTPPVLDSDGSFFLYSKLTVDKSRWQQGNVFSCSVMHEALHNRYTQKSLSLSP chain 2: DIQMTQSPSSLSASVGDRVTITCRASQDIHKYIAWYQQKPGQAPRLLIQYTSTLQPGVPSRFSGSGSGTDYTFTISSLQPEDIATYYCLQYEQLRTFGGGTKVEIKRTVAAPSVFIFPPSDEQLKSGTASVVCLLNNFYPREAKVQWKVDNALQSGNSQESVTEQDSKDSTYSLSSTLTLSKADYEKHKVYACEVTHQGLSSPVTKSFNRGEC	–	300	29

The next lines start with the values.

Kd (FcgRIIIa F [1]) [nM]	Kd (FcgRIIIa F [2]) [nM]	Kd (FcgRIIIa V) [nM]	Binder
1	–	–	GpH7-TA54/GpH7-B78/GpL16-k0 (antibody) chain 1: QVQLVQSGAEVKKPGASVTVSCKASGYTFTDYEMHWIRQPPGEGLEWIGAIDPKTGDTAYSESFQDRVTLTADKSTSTAYMELSSLTSEDTAVYYCTRFYSYTYWGQGTLVTVSSASTKGPSVFPLAPSSKSTSGGTAALGCLVKDYFPEPVTVSWNSGALTSGVHTFPAVLQSSGLYSLSSVVTVPSSSLGTQTYICNVNHKPSNTKVDKKVEPKSCDKTHTCPPCPAPEYLWGPDVFLFPPKPKDTLMISRTPEVTCVVVDVSHEDPEVKFNWYVDGVEVHNAKTKPREEQWNATYRVVSVLTVLHQDWLNGKEYKCKVSNKALPAPIEKTISKAKGQPREPQVYTLPPSRKELTKNQVSLTCLVKGFYPSDIAVEWESNGQPENNYKTTPPVLDSDGSFFLYSKLTVDKSRWQQGNVFSCSVMHEALHNRYTQKSLSLSP chain 2: QVQLVQSGAEVKKPGASVTVSCKASGYTFTDYEMHWIRQPPGEGLEWIGAIDPKTGDTAYSESFQDRVTLTADKSTSTAYMELSSLTSEDTAVYYCTRFYSYTYWGQGTLVTVSSASTKGPSVFPLAPSSKSTSGGTAALGCLVKDYFPEPVTVSWNSGALTSGVHTFPAVLQSSGLYSLSSVVTVPSSSLGTQTYICNVNHKPSNTKVDKKVEPKSCDKTHTCPPCPAPELLGGPDVFLFPPKPKDTLMISRTPEVTCVVVDVSHEDPEVKFNWYVDGVEVHNAKTKPREEQYNSTYRVVSVLTVLHQDWLNGKEYKCKVSNKALPLPEEKTISKAKGQPREPQVYTLPPSRDELTKNQVSLTCLVKGFYPSDIAVEWESNGQPENNYKTTPPVLDSDGSFFLYSKLTVDKSRWQQGNVFSCSVMHEALHNHYTQESLSLSP chain 3: DIVMTQSPLSLPVTPGEPASISCQASESLVHSNRNTYLHWYLQKPGQSPQLLIYKVSNRFSGVPDRFSGSGSGTDFTLKISRVEAEDVGVYYCSQNTHVPPTFGQGTKVEIERTVAAPSVFIFPPSDEQLKSGTASVVCLLNNFYPREAKVQWKVDNALQSGNSQESVTEQDSKDSTYSLSSTLTLSKADYEKHKVYACEVTHQGLSSPVTKSFNRGEC
1.3	–	–	GpH7-TA22/GpH7-TA58/GpL16-k0 (antibody) chain 1: QVQLVQSGAEVKKPGASVTVSCKASGYTFTDYEMHWIRQPPGEGLEWIGAIDPKTGDTAYSESFQDRVTLTADKSTSTAYMELSSLTSEDTAVYYCTRFYSYTYWGQGTLVTVSSASTKGPSVFPLAPSSKSTSGGTAALGCLVKDYFPEPVTVSWNSGALTSGVHTFPAVLQSSGLYSLSSVVTVPSSSLGTQTYICNVNHKPSNTKVDKKVEPKSCDKTHTCPPCPAPEYLWGPDVFLFPPKPKDTLMISRTPEVTCVVVDVSHEDPEVKFNWYVDGVEVHNAKTKPREEQYNATYRVVSVLTVLHQDWLNGKEYKCKVSNKALPAPIEKTISKAKGQPREPQVYTLPPSRKELTKNQVSLTCLVKGFYPSDIAVEWESNGQPENNYKTTPPVLDSDGSFFLYSKLTVDKSRWQQGNVFSCSVMHEALHNRYTQKSLSLSP chain 2: QVQLVQSGAEVKKPGASVTVSCKASGYTFTDYEMHWIRQPPGEGLEWIGAIDPKTGDTAYSESFQDRVTLTADKSTSTAYMELSSLTSEDTAVYYCTRFYSYTYWGQGTLVTVSSASTKGPSVFPLAPSSKSTSGGTAALGCLVKDYFPEPVTVSWNSGALTSGVHTFPAVLQSSGLYSLSSVVTVPSSSLGTQTYICNVNHKPSNTKVDKKVEPKSCDKTHTCPPCPAPELLGGPDVFLFPPKPKDTLMISRTPEVTCVVVDVSHEDPEVKFNWYVDGVEVHNAKTKPREEQWNSTYRVVSVLTVLHQDWLNGKEYKCKVSNKALPLPEEKTISKAKGQPREPQVYTLPPSRDELTKNQVSLTCLVKGFYPSDIAVEWESNGQPENNYKTTPPVLDSDGSFFLYSKLTVDKSRWQQGNVFSCSVMHEALHNHYTQESLSLSP chain 3: DIVMTQSPLSLPVTPGEPASISCQASESLVHSNRNTYLHWYLQKPGQSPQLLIYKVSNRFSGVPDRFSGSGSGTDFTLKISRVEAEDVGVYYCSQNTHVPPTFGQGTKVEIERTVAAPSVFIFPPSDEQLKSGTASVVCLLNNFYPREAKVQWKVDNALQSGNSQESVTEQDSKDSTYSLSSTLTLSKADYEKHKVYACEVTHQGLSSPVTKSFNRGEC
